Tests used:
[1] = biological target: extradomain B of fibronectin (Homo sapiens, UniProt P02751); experiment: SPR control extradomain B of fibronectin; assay type: binding
Protocol: (§1) The purified proteins were immobilized on a CM-5 sensor chip (GE Healthcare) using NHS/EDC after PDEA activation resulting in 110-140 RU with a Biacore 3000 system (GE Healthcare). The chip was equilibrated with SPR running buffer (PBS 0.05% Tween pH 7.3). Upon binding, target analyte was accumulated on the surface increasing the refractive index. This change in the refractive index was measured in real time and plotted as response or resonance units versus time. The analytes were applied to the chip in serial dilutions with a flow rate of 30 μl/min. The association was performed for 120 seconds and the dissociation for 120 seconds. After each run, the chip surface was regenerated with 30 μl regeneration buffer (10 mM glycine pH 2.0) and equilibrated with running buffer.
(§2) Binding studies were carried out by the use of the BIAcore 3000 (GE Healthcare); data evaluation was operated via the BIAevaluation 3.0 software, provided by the manufacturer, using the Langmuir 1:1 model (RI=0). Evaluated dissociation constants (KD) were standardized against the immobilized protein and indicated. Shown is the change in refractive index measured in real time and plotted as response or resonance unit [RU] versus time [sec].

[2] = Soluble expression in Escherichia coli BL21(DE3); assay type: physicochemical; conditions: expression in E. coli BL21(DE3)
Protocol: Variants with affinity tag were expressed in Escherichia coli BL21(DE3) using a low copy plasmid system under regulation of a T7 promoter. Proteins were produced in soluble form after induction by lactose included in the medium (autoinduction medium). BL21 (DE3) competent cells were transformed with the expression plasmid, spread onto selective agar plates (kanamycin) and incubated overnight at 37° C. Precultures were inoculated from single colony in 3 ml 2×YT medium supplemented with 50 μg/ml kanamycin and cultured for 6 hours at 37° C. at 200 rpm in a conventional orbital shaker in culture tubes. […] Cultures were transferred to an orbital shaker and incubated at 30° C. and 200 rpm. […] Before the harvest, the OD600 was measured, samples adjusted to 0.6/OD600 were withdrawn, pelleted and frozen at −20° C. […]
Proteins with affinity tag were purified by affinity chromatography and size exclusion. […] Homogenous species of all purified ligands were obtained; no aggregation was detected. Following SOS-PAGE analysis positive fractions were pooled and their protein concentrations were measured. […] Protein concentrations were determined by absorbance measurement at 280 nm using the molar absorbent coefficient. […] Binding of Collagen II was evaluated by SPR measurements using a Biacore 3000 system. […]

human collagen type III = biological target: T1, human collagen type III (Homo sapiens, UniProt P02461); experiment: ELISA specificity vs human collagen type III; assay type: binding
T1 construct: purchased Abcam ab7535
T1 sequence (P02461 154-1221 limits assumed): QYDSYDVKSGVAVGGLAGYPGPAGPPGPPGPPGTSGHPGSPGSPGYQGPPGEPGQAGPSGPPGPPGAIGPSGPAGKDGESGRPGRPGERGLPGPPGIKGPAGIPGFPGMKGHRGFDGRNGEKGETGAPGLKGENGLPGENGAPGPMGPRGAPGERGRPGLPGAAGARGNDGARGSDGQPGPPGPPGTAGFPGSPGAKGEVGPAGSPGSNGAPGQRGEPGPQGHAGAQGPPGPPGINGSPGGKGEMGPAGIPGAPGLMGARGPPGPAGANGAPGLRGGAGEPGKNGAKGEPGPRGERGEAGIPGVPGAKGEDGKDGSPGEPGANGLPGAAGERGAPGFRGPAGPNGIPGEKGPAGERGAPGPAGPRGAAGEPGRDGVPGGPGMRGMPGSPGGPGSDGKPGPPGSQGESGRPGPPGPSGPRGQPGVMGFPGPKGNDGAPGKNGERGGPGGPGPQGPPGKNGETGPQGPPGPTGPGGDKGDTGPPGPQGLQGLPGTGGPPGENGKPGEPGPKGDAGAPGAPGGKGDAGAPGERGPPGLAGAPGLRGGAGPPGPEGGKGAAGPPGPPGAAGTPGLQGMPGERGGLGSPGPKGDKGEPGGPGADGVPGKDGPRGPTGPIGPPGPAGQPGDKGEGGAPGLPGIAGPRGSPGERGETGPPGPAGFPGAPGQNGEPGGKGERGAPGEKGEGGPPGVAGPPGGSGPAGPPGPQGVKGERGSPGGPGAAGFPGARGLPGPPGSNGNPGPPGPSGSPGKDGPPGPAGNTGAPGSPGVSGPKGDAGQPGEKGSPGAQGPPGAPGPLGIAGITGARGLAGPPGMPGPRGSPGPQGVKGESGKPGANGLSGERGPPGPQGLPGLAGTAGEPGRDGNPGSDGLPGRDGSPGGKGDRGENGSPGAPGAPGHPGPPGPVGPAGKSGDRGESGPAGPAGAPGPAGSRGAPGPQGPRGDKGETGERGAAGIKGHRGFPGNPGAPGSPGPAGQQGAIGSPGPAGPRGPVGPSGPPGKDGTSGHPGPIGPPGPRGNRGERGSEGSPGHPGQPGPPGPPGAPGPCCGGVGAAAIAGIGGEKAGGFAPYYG
Protocol: (§3) High binding plates (Greiner, 781061) were immobilized with 2.5 μg/ml recombinant human collagen type II (h Col II, Chondrex, CHX-20051), rabbit collagen type II (rbCol II, prepared from rabbit eyes), porcine collagen type II (p Col II, prepared from porcine eyes), human collagen type I, (h Col I, Sigma, C5483-1MG), human collagen type V (h Col V, Abcam, ab7537), human collagen type III (h Col Ill, Abcam, ab7535) and 67B89 (domain of fibronectin, produced in E. coli) respectively over night at 4° C. ELISA-plates were washed 3 times with PBST (PBS+ 0.1% Tween) and blocked with 3% BSA/0.5% Tween/PBS 2 h at RT. After washing with PBST, dilution series of 1.1 μM to 7×10^−4 nM of dimers (CID 211999, CID 212000), dilution series of 100 nM to 7×10^−6 nM of tetramers (CID 212001 and CID 212704) and dilution series of 10 μM to 2 nM of dimer (CID 212705) were incubated on ELISA-plates 1 h at rt. Plates were washed with PBST and incubated with biotinylated anti-StrepTag-ab (Antikörper-online, ABIN1573895) with a dilution of 1:10.000 for 1 h at rt. The binding was visualized with a-rabbit-IgG-HRP (Sigma, A9169) with a dilution of 1:10.000 and as substrate TMB Plus von KEM EN TEC Diagnostic, Kat-Nr. 4395.

Type III collagen = biological target: T2, Type III collagen (Homo sapiens, UniProt P02461); experiment: SPR specificity vs Type III collagen; assay type: binding
T2 sequence (P02461 154-1221 limits assumed): T1 sequence (P02461 154-1221 limits assumed)
Protocol: as §1, §2

Type I collagen = Type I collagen (Homo sapiens, UniProt P02452+P08123); experiment: SPR specificity vs Type I collagen; assay type: binding
Chain of Type I collagen (P02452 162-1218 limits assumed): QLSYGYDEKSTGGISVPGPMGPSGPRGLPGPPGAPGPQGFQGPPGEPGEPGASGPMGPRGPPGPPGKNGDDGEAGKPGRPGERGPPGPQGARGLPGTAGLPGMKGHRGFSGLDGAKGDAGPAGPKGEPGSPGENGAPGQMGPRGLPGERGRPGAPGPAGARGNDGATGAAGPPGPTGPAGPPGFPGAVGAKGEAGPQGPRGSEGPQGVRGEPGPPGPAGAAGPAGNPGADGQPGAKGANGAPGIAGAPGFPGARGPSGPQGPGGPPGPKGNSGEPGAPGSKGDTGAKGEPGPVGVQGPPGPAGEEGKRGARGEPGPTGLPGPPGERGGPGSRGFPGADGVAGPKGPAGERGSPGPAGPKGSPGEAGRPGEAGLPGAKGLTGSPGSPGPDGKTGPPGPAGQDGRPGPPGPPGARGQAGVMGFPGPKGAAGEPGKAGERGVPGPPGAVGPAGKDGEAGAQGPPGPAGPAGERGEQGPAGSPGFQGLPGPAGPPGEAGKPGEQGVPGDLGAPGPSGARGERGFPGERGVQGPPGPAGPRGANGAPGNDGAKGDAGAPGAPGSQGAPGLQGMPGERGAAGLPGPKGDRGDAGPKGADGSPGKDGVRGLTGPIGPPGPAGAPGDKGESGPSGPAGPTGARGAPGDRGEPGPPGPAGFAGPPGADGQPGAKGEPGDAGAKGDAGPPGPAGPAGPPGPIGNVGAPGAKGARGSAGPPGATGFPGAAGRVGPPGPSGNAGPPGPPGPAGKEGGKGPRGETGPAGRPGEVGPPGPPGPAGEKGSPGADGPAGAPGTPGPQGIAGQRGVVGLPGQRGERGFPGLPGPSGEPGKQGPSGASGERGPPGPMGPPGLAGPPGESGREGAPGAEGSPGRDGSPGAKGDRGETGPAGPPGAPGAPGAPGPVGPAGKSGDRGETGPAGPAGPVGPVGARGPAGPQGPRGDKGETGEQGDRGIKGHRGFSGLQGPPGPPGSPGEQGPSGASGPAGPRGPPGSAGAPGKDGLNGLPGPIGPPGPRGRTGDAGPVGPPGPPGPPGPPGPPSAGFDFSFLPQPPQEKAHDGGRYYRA
Chain of Type I collagen (P08123 80-1119 limits assumed): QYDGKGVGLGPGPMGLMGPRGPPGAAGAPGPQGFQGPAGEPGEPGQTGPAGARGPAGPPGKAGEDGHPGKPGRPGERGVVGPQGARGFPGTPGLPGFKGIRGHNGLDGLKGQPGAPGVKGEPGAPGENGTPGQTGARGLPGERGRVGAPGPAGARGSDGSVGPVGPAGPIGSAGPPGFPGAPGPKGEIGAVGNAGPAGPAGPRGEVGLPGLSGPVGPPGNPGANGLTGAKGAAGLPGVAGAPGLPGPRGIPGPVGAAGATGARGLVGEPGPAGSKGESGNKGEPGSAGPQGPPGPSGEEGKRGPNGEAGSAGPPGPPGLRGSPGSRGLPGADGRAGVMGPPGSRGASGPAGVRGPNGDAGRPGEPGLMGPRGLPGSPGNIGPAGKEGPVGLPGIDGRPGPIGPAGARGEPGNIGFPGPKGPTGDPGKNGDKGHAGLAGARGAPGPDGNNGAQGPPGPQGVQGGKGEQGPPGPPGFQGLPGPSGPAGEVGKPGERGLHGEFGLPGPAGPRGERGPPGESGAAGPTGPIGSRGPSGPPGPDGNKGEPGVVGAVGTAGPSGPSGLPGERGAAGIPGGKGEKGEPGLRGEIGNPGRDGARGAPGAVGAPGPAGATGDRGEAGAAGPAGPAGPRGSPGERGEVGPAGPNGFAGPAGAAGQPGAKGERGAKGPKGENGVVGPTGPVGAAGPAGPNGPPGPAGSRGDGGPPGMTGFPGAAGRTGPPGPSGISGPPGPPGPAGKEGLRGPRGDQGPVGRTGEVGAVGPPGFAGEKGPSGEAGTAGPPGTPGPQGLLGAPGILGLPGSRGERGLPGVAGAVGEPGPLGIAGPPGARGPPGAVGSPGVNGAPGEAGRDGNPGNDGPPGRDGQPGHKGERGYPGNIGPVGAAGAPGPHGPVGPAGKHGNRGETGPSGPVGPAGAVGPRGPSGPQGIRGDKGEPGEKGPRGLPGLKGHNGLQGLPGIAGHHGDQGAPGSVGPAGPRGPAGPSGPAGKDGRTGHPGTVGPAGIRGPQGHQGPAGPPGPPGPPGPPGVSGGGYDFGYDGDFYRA
Protocol: as §1, §2

BSA = BSA (Bos taurus, UniProt P02769); experiment: SPR control BSA; assay type: binding
Chain of BSA (P02769 25-607): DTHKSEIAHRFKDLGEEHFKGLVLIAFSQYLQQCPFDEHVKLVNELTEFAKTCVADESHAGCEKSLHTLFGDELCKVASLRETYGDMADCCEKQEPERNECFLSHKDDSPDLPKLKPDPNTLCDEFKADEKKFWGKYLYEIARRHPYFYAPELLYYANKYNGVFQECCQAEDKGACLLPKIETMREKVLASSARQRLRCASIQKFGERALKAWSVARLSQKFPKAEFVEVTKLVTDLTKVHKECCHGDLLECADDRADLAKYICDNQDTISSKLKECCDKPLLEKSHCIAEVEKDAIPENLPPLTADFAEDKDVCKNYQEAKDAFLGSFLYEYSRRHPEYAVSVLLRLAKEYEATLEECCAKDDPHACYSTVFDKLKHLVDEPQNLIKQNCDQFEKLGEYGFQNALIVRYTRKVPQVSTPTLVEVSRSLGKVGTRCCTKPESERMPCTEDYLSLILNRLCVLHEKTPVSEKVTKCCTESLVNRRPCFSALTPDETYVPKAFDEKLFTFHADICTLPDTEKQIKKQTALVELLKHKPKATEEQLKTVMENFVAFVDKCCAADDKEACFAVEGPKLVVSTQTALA
Protocol: as §1, §2

[3] = biological target: T3, human collagen type I (h Col I) (Homo sapiens, UniProt P02452+P08123); experiment: ELISA specificity vs human collagen type I; assay type: binding
T3 construct: purchased Sigma C5483-1MG
T3 sequence (P02452 162-1218 limits assumed): as the sequence (P02452 162-1218 limits assumed) above
T3 sequence (P08123 80-1119 limits assumed): as the sequence (P08123 80-1119 limits assumed) above
Protocol: as §3

[4] = biological target: T4, recombinant human collagen type II (h Col II) (Homo sapiens, UniProt P02458); experiment: KD-determination by ELISA vs human collagen type II; assay type: binding
T4 construct: purchased Chondrex CHX-20051
T4 sequence (P02458 182-1241): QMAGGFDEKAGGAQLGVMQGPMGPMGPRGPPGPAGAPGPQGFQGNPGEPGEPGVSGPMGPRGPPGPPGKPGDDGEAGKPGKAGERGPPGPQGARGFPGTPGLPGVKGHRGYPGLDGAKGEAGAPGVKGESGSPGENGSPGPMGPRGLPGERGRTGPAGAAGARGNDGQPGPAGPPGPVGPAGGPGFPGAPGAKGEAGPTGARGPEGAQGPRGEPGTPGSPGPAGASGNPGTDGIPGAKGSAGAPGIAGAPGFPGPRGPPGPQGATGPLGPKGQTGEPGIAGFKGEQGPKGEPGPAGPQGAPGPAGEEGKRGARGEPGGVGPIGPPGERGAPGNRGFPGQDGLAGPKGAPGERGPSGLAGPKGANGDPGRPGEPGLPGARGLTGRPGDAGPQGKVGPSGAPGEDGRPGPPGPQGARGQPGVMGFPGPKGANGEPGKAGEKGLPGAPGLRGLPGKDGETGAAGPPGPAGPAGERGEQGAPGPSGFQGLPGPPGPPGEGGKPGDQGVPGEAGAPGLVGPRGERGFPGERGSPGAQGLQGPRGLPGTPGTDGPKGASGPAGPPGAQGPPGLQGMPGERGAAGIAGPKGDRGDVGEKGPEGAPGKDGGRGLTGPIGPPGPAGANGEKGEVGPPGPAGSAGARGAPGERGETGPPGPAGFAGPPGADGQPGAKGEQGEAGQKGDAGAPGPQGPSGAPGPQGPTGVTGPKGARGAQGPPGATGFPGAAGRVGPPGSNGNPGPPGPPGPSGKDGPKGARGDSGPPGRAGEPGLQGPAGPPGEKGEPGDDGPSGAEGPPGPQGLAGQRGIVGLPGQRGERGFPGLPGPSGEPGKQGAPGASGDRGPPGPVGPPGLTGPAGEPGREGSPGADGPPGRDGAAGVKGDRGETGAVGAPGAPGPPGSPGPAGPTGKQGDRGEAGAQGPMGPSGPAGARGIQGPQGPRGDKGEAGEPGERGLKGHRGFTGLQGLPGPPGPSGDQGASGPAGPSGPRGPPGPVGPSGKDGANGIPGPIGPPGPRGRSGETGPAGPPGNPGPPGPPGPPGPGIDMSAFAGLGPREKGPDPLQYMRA
Protocol: as §3

Chain of extradomain B of fibronectin (P02751 1271-1359 limits assumed): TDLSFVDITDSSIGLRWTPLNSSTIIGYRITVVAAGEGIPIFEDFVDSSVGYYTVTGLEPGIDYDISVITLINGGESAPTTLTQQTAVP

Substance	Binding to control extradomain B of fibronectin (SPR) [1]	Solubility Soluble expression [2] [%]	binding to type III collagen (ELISA) (human collagen type III)	Binding to Type III collagen (SPR) (Type III collagen)	Binding to Type I collagen (SPR) (Type I collagen)	Binding to control BSA (SPR) (BSA)	binding to type I collagen (ELISA) [3]	binding vs human type II collagen (ELISA, words) [4]
CID 211190: type II collagen binding protein of SEQ ID NO: 1 (monomer) (NAASHDEAQLSALVEIWDLPNLTTRQKQKFIYSLQRDPSVSKEVLGEAQKLNDSQAPK; Col2 binding protein 211190)	not to controls	95	additionally	additional binding	additional binding	not to controls	additionally	specific binding
CID 211261: Type II Collagen binding protein of SEQ ID NO: 2 (monomer, motif 25Q-29Y-33W) (IAAKFDEAQSAADSEILHLPNLTEQQRHYFRRWLSDDPSVSTHILTQAQHLNDDQAPK; Col2 binding protein 211261)	–	95	–	–	–	–	–	–

— patent publication US20230416345A1, “NEW TYPE II COLLAGEN BINDING PROTEINS” (Navigo Proteins GmbH, priority 2020, published 2023)
